Reference: publication PMC4384115, “Molecular Recognition of PTS-1 Cargo Proteins by Pex5p: Implications for Protein Mistargeting in Primary Hyperoxaluria” (Biomolecules, 2015)

How the values were obtained:
CHO cells [1] = assay: Confocal immunofluorescence colocalization of AGT with peroxisomes (PMP70) in transfected CHO cells; format: cell-based, Chinese hamster; conditions: for amount of protein localized in peroxisomes / Pearson Rr, AGT + PMP70: transiently transfected CHO cells; for Pearson Rr, AGT + PMP70: fixed 72 h after transfection
Experimental: (§1) Chinese hamster ovary (CHO) cells (ATTC, Rockville, MD USA) were grown in alpha-minimal essential medium (α-MEM, Lonza, Köln, Germany) supplemented with glutamine, penicillin/streptomycin and 5% fetal bovine serum. Cell transfections were performed using AGT cDNA variants (AGT-LRM or AGT-LRM-SKL) subcloned in pCIneo plasmids (Promega) with Transfast reagent (Promega, Madison, WI, USA), following manufacturer’s guidelines. After 24 h, cells were passed to plates containing 13 mm glass coverslips for immunofluorescence studies. Mitochondria in half the coverslips were labeled by incubation with Mitotracker (CMXRos, Invitrogen, Carlsbad, CA, USA) at the end of the culture. Cells were fixed with 2% paraformaldehyde 72 h after transfection and immunofluorescence was performed as previously described. Images were acquired with a laser scanning confocal microscope (Olympus Inverted IX81, Tokyo, Japan) using a 60× objective with immersion oil.
(§2) For quantitative immune-colocalization, the system was optimized to detect two fluorescent signals in one specimen: one in the green channel detector for protein of interest AGT-LRM or AGT-LRM-SKL and the other in the red channel, for either mitochondria labeled with mitotracker or peroxisomes labeled with peroxisomal membrane protein 70 (PMP70) antibody. When the two were seen to overlap (colocalization), it was assumed to be due to fluorescently labeled molecules binding to very close or indeed identical spatial positions. Colocalization events (or the lack thereof) were analyzed quantitatively with FluoView software (Olympus, Tokyo, Japan) and ImageJ software (NIH, Bethesda, MD, USA) with the JACoP plugin, based on a global statistic approach that conducts an intensity correlation coefficient-based examination. The Fisher transformation was applied to data obtained from ImageJ as well when calculating the mean values of colocalization coefficients and constructing the respective 95% confidence intervals. Descriptive statistical analysis of colocalization parameters (Pearson’s coefficient, Manders’ overlap coefficient and split Manders’ coefficients) was performed.

CHO cells [2] = assay: Confocal immunofluorescence colocalization of AGT with mitochondria (Mitotracker) in transfected CHO cells; format: cell-based, Chinese hamster; conditions: transiently transfected CHO cells; for Pearson Rr, AGT + Mitotracker: fixed 72 h after transfection, mean ± S.E.
Experimental: as §1, §2

Molecule	% Coloc (Manders' m), AGT + PMP70 (CHO cells [1]; CHO cells, mean ± S.E., given as fraction, split Manders' M1 in situation 2, Manders' overlap R in situation 4, SEM)	amount of protein localized in peroxisomes (CHO cells [1]) [%]	Pearson Rr, AGT + PMP70 (CHO cells [1]; mean ± S.E.)	Pearson Rr, AGT + PMP70 (CHO cells [1]; mean ± S.E., SEM)	colocalization with mitotracker in the mitochondria (CHO cells [2]) [%]	Pearson Rr, AGT + Mitotracker (CHO cells [2])	Pearson Rr, AGT + Mitotracker (CHO cells [2]; SEM)
AGT-LRM: human AGT variant p.P11L/p.G170R/p.I340M, mistargeting PH1 variant (protein, UniProt P21549 1-392, looked up, variant P11L G170R I340M) Alanine--glyoxylate …: MASHKLLVTPLKALLKPLSIPNQLLLGPGPSNLPPRIMAAGGLQMIGSMSKDMYQIMDEIKEGIQYVFQTRNPLTLVISGSGHCALEAALVNVLEPGDSFLVGANGIWGQRAVDIGERIGARVHPMTKDPGGHYTLQEVEEGLAQHKPVLLFLTHGESSTGVLQPLDGFRELCHRYKCLLLVDSVASLGGTPLYMDRQGIDILYSGSQKALNAPPGTSLISFSDKAKKKMYSRKTKPFSFYLDIKWLANFWGCDDQPRMYHHTIPVISLYSLRESLALIAEQGLENSWRQHREAAAYLHGRLQALGLQLFVKDPALRLPTVTTVAVPAGYDWRDIVSYVMDHFDIEIMGGLGPSTGKVLRIGLLGCNATRENVDRVTEALRAALQHCPKKKL	0.17 ± 0.15	17	0.39	0.39 ± 0.15	92	0.90	0.90 ± 0.12
AGT-LRM-SKL: AGT-LRM with PTS1 mutated to the consensus –SKL C-terminal tripeptide (protein, UniProt P21549 1-392, looked up, variant P11L G170R I340M K390S L392L) Alanine--glyoxylate …: MASHKLLVTPLKALLKPLSIPNQLLLGPGPSNLPPRIMAAGGLQMIGSMSKDMYQIMDEIKEGIQYVFQTRNPLTLVISGSGHCALEAALVNVLEPGDSFLVGANGIWGQRAVDIGERIGARVHPMTKDPGGHYTLQEVEEGLAQHKPVLLFLTHGESSTGVLQPLDGFRELCHRYKCLLLVDSVASLGGTPLYMDRQGIDILYSGSQKALNAPPGTSLISFSDKAKKKMYSRKTKPFSFYLDIKWLANFWGCDDQPRMYHHTIPVISLYSLRESLALIAEQGLENSWRQHREAAAYLHGRLQALGLQLFVKDPALRLPTVTTVAVPAGYDWRDIVSYVMDHFDIEIMGGLGPSTGKVLRIGLLGCNATRENVDRVTEALRAALQHCPKSKL		84	0.79		40	0.47	
